In experiment [1] the target is human PD-L1 on cell surface (human) (UniProt Q9NZQ7). The experiment in a line: flow cytometry on CHO cells expressing human PD-L1, fitted curve, negative control. (In general: A flow cytometer gives signals particle by particle.)
In experiment [2] the target is monkey PD-L1 on cell surface (monkey). Nature of the experiment: flow cytometry on CHO cells expressing monkey PD-L1, fitted curve, negative control.
The target in experiment [3] is biotin-labeled PD-L1-Fc (human) (UniProt Q9NZQ7). The experiment in a line: ELISA: biotin-PD-L1-Fc binding to coated human PD-1 with titrated antibody; negative control. In general terms: ELISA stands for enzyme-linked immunosorbent assay.
Sequence of biotin-labeled PD-L1-Fc (human) (Q9NZQ7 19-238 limits assumed): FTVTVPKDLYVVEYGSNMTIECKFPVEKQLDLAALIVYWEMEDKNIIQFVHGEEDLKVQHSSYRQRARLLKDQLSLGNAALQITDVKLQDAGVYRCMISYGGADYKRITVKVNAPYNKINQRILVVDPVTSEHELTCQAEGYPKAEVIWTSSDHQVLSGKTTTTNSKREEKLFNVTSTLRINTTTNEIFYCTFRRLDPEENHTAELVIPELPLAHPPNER
For experiment [4] the target is unchanged. Nature of the experiment: ELISA: biotin-PD-L1-Fc binding to coated human PD-1 with titrated antibody, OD 450 nm, fitted curve; negative control.
Experiment [5] has the same target. The experiment in a line: flow cytometry: biotin-PD-L1-Fc binding to CHO cells expressing human PD-1 with titrated antibody, fitted curve; negative control.

Sequence of human PD-L1 on cell surface (human) (Q9NZQ7 19-290): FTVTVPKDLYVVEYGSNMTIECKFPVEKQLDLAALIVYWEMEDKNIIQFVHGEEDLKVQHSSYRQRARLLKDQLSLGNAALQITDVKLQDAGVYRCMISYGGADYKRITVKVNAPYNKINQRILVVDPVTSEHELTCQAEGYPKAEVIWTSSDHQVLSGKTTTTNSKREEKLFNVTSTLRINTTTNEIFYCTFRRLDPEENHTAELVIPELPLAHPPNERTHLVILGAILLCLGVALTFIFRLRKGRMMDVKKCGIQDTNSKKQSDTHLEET

Usually EC50 stands for the concentration giving half of the maximal effect. With negative control antibody human IgG, in experiment [1], the Bottom stood at 166, the EC50 was determined as 0.015 nM, the LogEC50 is -1.82 and the Span was 24.7. The substance further registered a Top in experiment [1] of 191. In experiment [2], this substance yielded a Bottom of 216, an EC50 of 19.3 nM, a LogEC50 of 1.29 and a Span of 32. In experiment [2], the Top stood at 248. This substance came in with an EC50 in experiment [3] of 2.88 µg/mL. In experiment [4], the Bottom was determined as 1.75, the LogEC50 is 3.46, the Span was found to be 0.186 and the Top came out at 1.94. Further, in experiment [5], the Bottom came to 5880, the LogEC50 was -17.5, the Span is 1.15e+06 and the Top is 1.16e+06.

The values above are taken from patent publication US20220073618A1.
